This note sets out measurements from the RNAGym collection of RNA variant scans (doi:10.7554/elife.80360).

B1: Twister Ribozyme (parent)
chain: AACACUGCCAAUGCCGGUCCCAAGCCCGGAUAAAAGUGGAGGGGGCGG

The variants in the data set derive from B1. Kind of data set: self-cleavage, relative activity (ratio to wild type); higher = more cleavage; co-transcriptional.
C20A G48C: the self-cleavage worked out at 0.169. In the case of C9A G47U, the self-cleavage amounted to 0.244. The result for C15U C26U reads 0.117; that for A2C, 0.0941. For the variant C9G U31G, the self-cleavage stood at 0.781. G7C G36A: the self-cleavage worked out at 0.0583. For C5A G17C, the self-cleavage was 0.0425.

Consider A32G G47C, for which the self-cleavage was determined as 0.473. The result for C20A C26A reads 0.0889; that for G44A G48C, 1.11. Consider G29A G44A, for which the self-cleavage is 0.738. Next, A11U C20A: 0.178. The result for C20U A30C reads 0.533; that for A33G G42C, 0.268.

For the variant G7U C9A, the self-cleavage was 0.0711. The result for C15A U37G reads 0.0756; that for C8A C27G, 0.0579; that for G38U G39A, 0.185. As to C9A G24C, the self-cleavage came out at 0.119. Next, A34C G44C: 0.156; C15U C20G: 0.135; U18C G28U: 0.156.

As to A23C G24A, the self-cleavage stood at 0.107. On to A23C G24U, for which the self-cleavage is 0.0714. Regarding A4U U12A, the self-cleavage was 0.0897. The result for G28U A32U reads 0.873. Next, A10U G42A: 0.489; A1G U12G: 0.527. As to G28U G43A, the self-cleavage was 0.221. Next, C9A U18G: 0.159; A22U A33G: 0.888; U18C A33G: 0.503.

As to A33U, the self-cleavage is 0.998.

For the variant C3G C21U, the self-cleavage amounted to 0.0445. Next, C3G C21G: 0.0504; U37G G43U: 0.173; G7A C8U: 0.0616. The result for C27G U31C reads 0.072; that for G36C G48U, 0.455; that for A4U A40C, 0.0425. For the variant C8U U18G, the self-cleavage amounted to 0.0414. As to G7C G17A, the self-cleavage was 0.0642. The result for A10C A32C reads 0.821; that for A22U G39A, 0.099; that for U18A G28A, 0.2. On to C9A C15G, for which the self-cleavage was determined as 0.0772.

For the variant C3A G42U, the self-cleavage worked out at 0.0908. The result for G7C C46A reads 0.0371; that for A32C G38U, 0.723. The result for C19U C27A reads 0.176. In the case of A2U G45U, the self-cleavage amounted to 0.344.

Consider A11G A32G, for which the self-cleavage was determined as 0.882. The result for A10U A40G reads 0.191; that for G41C C46U, 0.282; that for G24C C26A, 0.0895. In the case of C3G A32C, the self-cleavage came out at 0.379.

For G29C G48U, the self-cleavage was 0.642. Next, C5U G38A: 0.695; A22G A34C: 0.0775; G13U G42A: 0.139. The result for G13U G42C reads 0.181. As for C19A G38A, the self-cleavage was determined as 0.132.

Regarding A2G U31G, the self-cleavage came to 0.324. C20G A33U: the self-cleavage amounted to 0.13. Next, C20G A30U: 0.165; U12A A40C: 0.291. As to U6A G48C, the self-cleavage was 0.84. Next, A2U C25U: 0.169. In the case of G36U C46U, the self-cleavage amounted to 0.408.

With A34G G47C, the self-cleavage came out at 0.193. In the case of U18C G39U, the self-cleavage was 0.104. C3A C46G: the self-cleavage was 0.117. Next, C20U G44C: 0.816; U12G C20U: 0.725; A30U A32C: 0.945.

Consider C15U U18G, for which the self-cleavage came out at 0.0578. The result for U6G C15A reads 0.301; that for G16U C20U, 0.797; that for A33U G47C, 0.439.

Turning to C3A C5G, the self-cleavage was 0.265. The result for A32G U37C reads 0.844.

Turning to U18A C20A, the self-cleavage worked out at 0.0667. A33G G44U: the self-cleavage is 0.86. Next, A10C U18A: 0.455; C21U G43A: 0.08. As to G13A G42C, the self-cleavage was found to be 0.34.

On to C14U G42A, for which the self-cleavage was 0.456. Next, G29U A40U: 0.145; A2C C46G: 0.0474. As for A11C U12A, the self-cleavage is 0.907.

For the variant G7C A32U, the self-cleavage turned out to be 0.0629. The result for A30C G44C reads 0.874; that for C3G A33U, 0.526; that for A4G U37C, 0.99. For the variant A11G U31C, the self-cleavage was determined as 0.736. The result for G7A C46U reads 0.579; that for C21A G38C, 0.101; that for C21G G36A, 0.0998. Next, A11G G39C: 0.119; G17A G41U: 0.169; G17U A23G: 0.0937.

Consider A23U A32G, for which the self-cleavage worked out at 0.45. The result for A1C C14A reads 0.222; that for C27G G39A, 0.0704. Next, A4G C5U: 0.855; C15G A22G: 0.0636; G7C G44C: 0.0685. In the case of A1C A40G, the self-cleavage was 0.117. Next, G16U G48U: 0.843; C25A A40U: 0.0741; A1U U18A: 0.0328.

For C20G C26U, the self-cleavage was determined as 0.0527.

On to U12A G43C, for which the self-cleavage was 0.255. The result for C9U G45C reads 0.157. The result for C20U G28C reads 0.774; that for C20G U37G, 0.0665; that for G41A G47A, 0.278. Take C21U C26G: the self-cleavage was found to be 0.0581. The result for G16A G45U reads 0.858; that for C8G C21A, 0.041.

C9U A10C: the self-cleavage was 0.948. With C3A G28U, the self-cleavage is 0.144. As for A22C G39A, the self-cleavage amounted to 0.238. Next, C21G G45C: 0.0674; A23C G43C: 0.123. Regarding A23C G43U, the self-cleavage worked out at 0.109. U6C G36C: the self-cleavage was 0.112. Next, A22U G45U: 0.57. Next, G28U G29A: 0.947; A23C G39A: 0.127; U31A G39U: 0.168. With C3A A32G, the self-cleavage was 0.0493. For G38A G43C, the self-cleavage is 0.148.

As to G29U G39U, the self-cleavage turned out to be 0.223.

For the variant C9U C27U, the self-cleavage came to 0.37. For the variant C21U A30U, the self-cleavage came out at 0.141.

Take G17C A22C: the self-cleavage was 0.123. The result for G38U G42U reads 0.12. The result for C15A U18C reads 0.104. The result for C15A G28C reads 0.757; that for G16A C26U, 0.107; that for G29U U37A, 0.512.

In the case of G13U A35G, the self-cleavage worked out at 0.127. In the case of C5U G29U, the self-cleavage was determined as 0.631.

On to A2G G16C, for which the self-cleavage is 0.119. Next, G28C A30G: 0.77. On to G17C A35G, for which the self-cleavage was determined as 0.0629. As to A35U G47C, the self-cleavage stood at 0.694. The result for G13C G43C reads 0.105; that for C9A C26G, 0.0708. Consider C14A G48C, for which the self-cleavage was found to be 1.04.

On to G24U G29U, for which the self-cleavage is 0.103. The result for G7U G36A reads 0.0763; that for C8A G43C, 0.153. Next, A1U G17U: 0.0683; C8A C21G: 0.076.

Consider U6A G47C, for which the self-cleavage was 0.296.

Regarding A22G G43C, the self-cleavage was 0.154. Next, C8A G45C: 0.141; C8A G45U: 0.176; G45C G48A: 0.628.

Consider A10G U12A, for which the self-cleavage was 1.03. As to A2U U12G, the self-cleavage was found to be 0.557.

As to C8U C25A, the self-cleavage amounted to 0.0853. Next, G39A A40C: 0.139; A30G G36U: 0.32. The result for C8A A40U reads 0.2.
